Reference: patent US20160251408

How the values were obtained:
[1] = test system: VWF-055 (VWF D′D3-Fc fusion construct; 34 aa VWF linker comprising an a2 region from FVIII)
[2] = test system: VWF-034 (VWF D′D3-288XTEN-LVPR-Fc fusion construct)
VWF-034 (VWF D′D3-288XTEN-LVPR-Fc fusion construct), sequence (chain, as listed by the source): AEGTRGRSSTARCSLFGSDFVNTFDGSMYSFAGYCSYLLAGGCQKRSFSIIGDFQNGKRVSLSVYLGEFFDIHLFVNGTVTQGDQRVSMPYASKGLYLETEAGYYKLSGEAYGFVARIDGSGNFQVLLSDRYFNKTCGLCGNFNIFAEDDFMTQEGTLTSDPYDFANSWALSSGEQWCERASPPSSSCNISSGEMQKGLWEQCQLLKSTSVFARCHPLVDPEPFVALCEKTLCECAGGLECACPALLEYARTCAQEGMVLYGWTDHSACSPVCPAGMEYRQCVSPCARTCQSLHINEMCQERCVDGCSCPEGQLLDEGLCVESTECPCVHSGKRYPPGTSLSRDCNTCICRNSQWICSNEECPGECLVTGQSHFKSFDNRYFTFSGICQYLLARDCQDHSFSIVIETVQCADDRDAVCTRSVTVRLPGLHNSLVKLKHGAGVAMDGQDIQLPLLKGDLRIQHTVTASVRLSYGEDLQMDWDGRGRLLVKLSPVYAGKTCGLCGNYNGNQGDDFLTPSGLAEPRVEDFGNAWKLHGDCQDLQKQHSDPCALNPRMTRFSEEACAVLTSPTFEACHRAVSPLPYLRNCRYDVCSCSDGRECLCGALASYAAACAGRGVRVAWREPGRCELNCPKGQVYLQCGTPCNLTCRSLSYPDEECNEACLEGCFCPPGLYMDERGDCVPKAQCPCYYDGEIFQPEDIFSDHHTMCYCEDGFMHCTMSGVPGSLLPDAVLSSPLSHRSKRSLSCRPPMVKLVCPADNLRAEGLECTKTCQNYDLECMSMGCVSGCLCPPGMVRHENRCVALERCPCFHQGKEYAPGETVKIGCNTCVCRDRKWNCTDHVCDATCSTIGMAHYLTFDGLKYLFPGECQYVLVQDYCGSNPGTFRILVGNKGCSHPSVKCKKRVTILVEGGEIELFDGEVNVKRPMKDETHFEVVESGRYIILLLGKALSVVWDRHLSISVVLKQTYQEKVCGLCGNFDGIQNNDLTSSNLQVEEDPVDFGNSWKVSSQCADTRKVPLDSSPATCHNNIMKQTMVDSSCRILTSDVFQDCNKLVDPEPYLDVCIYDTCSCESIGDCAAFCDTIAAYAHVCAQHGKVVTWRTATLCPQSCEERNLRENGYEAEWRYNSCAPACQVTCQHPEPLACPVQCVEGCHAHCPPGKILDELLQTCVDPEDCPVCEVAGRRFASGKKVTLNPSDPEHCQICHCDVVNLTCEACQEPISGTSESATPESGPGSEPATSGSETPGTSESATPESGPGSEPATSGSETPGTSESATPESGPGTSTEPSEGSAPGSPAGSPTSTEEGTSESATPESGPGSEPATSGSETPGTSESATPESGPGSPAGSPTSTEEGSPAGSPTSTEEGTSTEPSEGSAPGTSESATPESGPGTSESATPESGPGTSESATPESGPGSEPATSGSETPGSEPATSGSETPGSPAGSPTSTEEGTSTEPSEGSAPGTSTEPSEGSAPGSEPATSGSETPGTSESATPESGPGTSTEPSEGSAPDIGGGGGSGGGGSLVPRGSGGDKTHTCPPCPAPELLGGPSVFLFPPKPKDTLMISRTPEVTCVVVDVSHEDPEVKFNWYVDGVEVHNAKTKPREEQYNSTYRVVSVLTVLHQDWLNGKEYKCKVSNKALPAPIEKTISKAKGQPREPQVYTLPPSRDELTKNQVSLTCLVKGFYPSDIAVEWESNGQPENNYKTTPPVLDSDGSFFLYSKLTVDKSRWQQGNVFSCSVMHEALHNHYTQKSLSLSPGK

VWF-055 (VWF D′D3-Fc fusion construct; 34 aa VWF linker comprising an a2 region from FVIII), sequence (chain, as listed by the source): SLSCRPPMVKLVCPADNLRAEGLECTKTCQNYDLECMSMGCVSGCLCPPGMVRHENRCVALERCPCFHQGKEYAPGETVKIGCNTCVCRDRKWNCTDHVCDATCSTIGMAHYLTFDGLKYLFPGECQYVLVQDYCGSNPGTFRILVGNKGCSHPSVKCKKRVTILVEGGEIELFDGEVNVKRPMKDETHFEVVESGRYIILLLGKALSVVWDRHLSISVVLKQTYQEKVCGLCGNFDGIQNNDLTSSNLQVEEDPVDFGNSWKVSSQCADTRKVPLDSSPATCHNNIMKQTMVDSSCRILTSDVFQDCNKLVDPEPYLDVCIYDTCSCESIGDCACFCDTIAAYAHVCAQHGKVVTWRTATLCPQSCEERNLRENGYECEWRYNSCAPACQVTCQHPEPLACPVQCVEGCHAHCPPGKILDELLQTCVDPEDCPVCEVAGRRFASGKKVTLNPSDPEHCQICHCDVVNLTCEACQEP

With human alpha-thrombin the “thrombin cleavage relative to VWF-039 (Biacore)” value [1] was “displayed similar thrombin cleavage as VWF-039 construct” and the “thrombin cleavage rate relative to VWF-031 (Biacore)” value [2] was “displayed slower cleavage compared to VWF-031”.
